Consider 1 molecule from article PMC3510514 (Nucleic Acids Research, 2012).

This test deals with T1, GST-ubiquitin (human, UniProt P0CG48 1-76).
T1 construct: ubiquitin, the cut product of the polyubiquitin precursor; also called GST-tagged ubiquitin; source: purified
Nature of the test: pull-down; GST-ubiquitin (3 μg) on glutathione-sepharose beads, FLAG-Spartan (1 μg) in solution; 4 h at 4°C, buffer I (40 mM Tris HCl pH 7.5, 85 mM NaCl, 0.1 mM DTT, 10% glycerol, 0.01% NP40); immunoblot with anti-FLAG and anti-GST. The note with it: both partners purified.

B1: FLAG-Spartan PIP mutant YF331,332AA (natural protein, human, UniProt Q9H040 1-489, looked up)
chain: MDDDLMLALRLQEEWNLQEAERDHAQESLSLVDASWELVDPTPDLQALFVQFNDQFFWGQLEAVEVKWSVRMTLCAGICSYEGKGGMCSIRLSEPLLKLRPRKDLVETLLHEMIHAYLFVTNNDKDREGHGPEFCKHMHRINSLTGANITVYHTFHDEVDEYRRHWWRCNGPCQHRPPYYGYVKRATNREPSAHDYWWAEHQKTCGGTYIKIKEPENYSKKGKGKAKLGKEPVLAAENKDKPNRGEAQLVIPFSGKGYVLGETSNLPSPGKLITSHAINKTQDLLNQNHSANAVRPNSKIKVKFEQNGSSKNSHLVSPAVSNSHQNVLSNAAPRVSFANQKAFRGVNGSPRISVTVGNIPKNSVSSSSQRRVSSSKISLRNSSKVTESASVMPSQDVSGSEDTFPNKRPRLEDKTVFDNFFIKKEQIKSSGNDPKYSTTTAQNSSSSSSQSKMVNCPVCQNEVLESQINEHLDWCLEGDSIKVKSEESL
notes: Spartan/C1orf124, human; cDNA clone bought from ImaGenes; also called PIP mutant Spartan; YF331,332AA Spartan; source: S. cerevisiae BJ5464, purified (glutathione-Sepharose, eluted by PreScission protease); not shown: GST, N-terminal, cleaved; FLAG, N-terminal, kept
Take B1: the binding result is given as “binds”.
